Measurements taken from patent US20100293752, “DEVICE FOR DECELERATING THE ROTATION OF A HINGE IN PARTICULAR FOR FURNITURE AND A HINGE PARTICULARLY FOR FURNITURE HAVING SAID DECELERATION DEVICE” (published 2010).

Molecular target: osteopontin (OPN) (Homo sapiens, UniProt P10451 P10451:17-314)
Assay: filter; double-filter nitrocellulose, selection buffer, 37 C; OPN species not specified for this assay
Settings: label: 5'-32P; stem-loop (predicted, mFold)
Method: The RNA-protein equilibrium dissociation constant (Kd) of OPN-R3 was characterized using the double-filter nitrocellulose filter binding method (Gopinath, Anal. Bioanal. Chem. 387:171 (2007)). For all binding assays, RNAs were dephosphorylated using bacterial alkaline phosphatase (Invitrogen, Carlsbad, Calif.) and 5′-end labeled using T4 polynucleotide kinase (New England Biolabs, Beverly, Mass.) and γ-³²P-ATP (MP Biomedicals, Solon, Ohio). Direct binding assays were carried out by incubating ³²P-labeled RNA at a concentration of less than 0.1 nM and target protein at concentrations ranging from 300 nM to 10 μM in selection buffer at 37° C. The fraction of RNA bound was quantified with a PhosphorImager (Molecular Dynamics, Sunnyvale, Calif.). Raw binding data were corrected for nonspecific background binding of radiolabeled RNA to the nitrocellulose filter.

Sequence of osteopontin (OPN) (P10451 17-314, one chain of several): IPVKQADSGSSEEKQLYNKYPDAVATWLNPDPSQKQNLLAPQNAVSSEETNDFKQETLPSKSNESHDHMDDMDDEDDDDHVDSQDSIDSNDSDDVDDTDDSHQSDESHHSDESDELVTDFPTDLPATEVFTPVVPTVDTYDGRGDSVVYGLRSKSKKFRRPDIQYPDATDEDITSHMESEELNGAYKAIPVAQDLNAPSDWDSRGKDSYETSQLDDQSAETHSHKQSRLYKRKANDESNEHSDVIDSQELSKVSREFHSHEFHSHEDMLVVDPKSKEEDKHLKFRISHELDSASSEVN

CGGCCACAGAAUGAAAAACCUCAUCGAUGUUGCAUAGUUG (ssRNA, 2'-F on all C and U) [OPN-R3 32P-labelled]
Kd: 18 nM
